According to US11213590B2, “SSTR-targeted conjugates and particles and formulations thereof” (priority 2016, dated 2022):
Marks after values point to notes of the source that are not given here.

Legend:
NCI-H69 xenograft = test: NCI-H69 lung xenograft efficacy, formulations and schedules; format: in vivo, mice; settings: for MTV (Mean Tumor Volume): total dose 2.0 mg/kg; for MTV (Mean Tumor Volume) / mice with complete tumor regression: Day 21
Protocol: A further NCI-H69 study design included Conjugate 57 dosed iv at 1.0 mg/kg formulated in propylene glycol (PG), 1.0 mg/kg formulated in Solutol HS15, 0.5 mg/kg formulated in Solutol HS15 dosed twice per week, and 0.33 mg/kg formulated in Solutol HS15 dosed three times per week. A comparator group was dosed with SOC cisplatin dosed iv at 5.0 mg/kg once per week/etoposide dosed ip at 8.0 mg/kg three times per week over two weeks. A negative control vehicle was dosed with the Solutol HS 15 vehicle. All groups contained 10 animals.

[1] = Drug substance stability study; format: physicochemical
Protocol: Stability studies were carried out for Conjugate 57. The tests included in the stability protocols ensure that changes relating to appearance, strength, purity, and moisture of the drug substance are monitored through-out the shelf life of the drug substance. Endotoxins are also monitored by annual inclusion of tests for these attributes in the stability program.
In another stability study, the following conditions were tested: 5° C.±3° C. under nitrogen and −20° C.±5° C. under nitrogen. Nitrogen was selected to prevent oxidation and assure control atmosphere during storage.

[2] = Excipient solubility and compatibility testing; format: physicochemical
Protocol: Conjugate 57 is an amphiphilic molecule and therefore tends to self-assemble into large structures. […] Commonly used parenteral surfactant excipients such as Polysorbate 80 (Tween 80) and Polyoxyl 15 Hydroxystearate (solutol, Kolliphor HS 15) were evaluated to re-assemble and stabilize Conjugate 57 into organized micelles. Conjugate 57 is compatible with non-ionic surfactants such as Tween 80 and solutol.

SSTR1 = SSTR1 (Homo sapiens, UniProt P30872); test: Affinity profile (half-maximal inhibitory concentration), SSTR1; format: binding
Sequence of SSTR1 (P30872 whole entry): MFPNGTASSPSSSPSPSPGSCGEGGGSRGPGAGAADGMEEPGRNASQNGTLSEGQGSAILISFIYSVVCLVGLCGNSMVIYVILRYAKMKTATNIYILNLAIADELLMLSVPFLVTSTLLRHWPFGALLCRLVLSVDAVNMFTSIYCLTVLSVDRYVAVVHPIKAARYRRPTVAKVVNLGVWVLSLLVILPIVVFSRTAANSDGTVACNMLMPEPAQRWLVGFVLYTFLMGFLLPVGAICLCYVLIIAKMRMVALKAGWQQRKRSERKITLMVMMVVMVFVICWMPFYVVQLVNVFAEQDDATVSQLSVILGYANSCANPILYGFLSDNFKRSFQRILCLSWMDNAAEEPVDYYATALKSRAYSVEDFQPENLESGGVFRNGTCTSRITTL
Text: (§1) DOTATE, also known as DOTA-TATE or DOTA-octreotate, comprises an amide of the acid DOTA, which connects a radionuclide and (Tyr3)-octreotate, a derivative of octreotide. DOTATOC, also known as edotreotide, SMT487, or (DOTA^0-Phe^1-Tyr^3)octreotide, is also an octreotide derivative which can be bound to radionuclides for diagnosis and treatment.

SSTR2 = SSTR2 (Homo sapiens, UniProt P30874); test: Affinity profile (half-maximal inhibitory concentration), SSTR2; format: binding
Sequence of SSTR2 (P30874 whole entry): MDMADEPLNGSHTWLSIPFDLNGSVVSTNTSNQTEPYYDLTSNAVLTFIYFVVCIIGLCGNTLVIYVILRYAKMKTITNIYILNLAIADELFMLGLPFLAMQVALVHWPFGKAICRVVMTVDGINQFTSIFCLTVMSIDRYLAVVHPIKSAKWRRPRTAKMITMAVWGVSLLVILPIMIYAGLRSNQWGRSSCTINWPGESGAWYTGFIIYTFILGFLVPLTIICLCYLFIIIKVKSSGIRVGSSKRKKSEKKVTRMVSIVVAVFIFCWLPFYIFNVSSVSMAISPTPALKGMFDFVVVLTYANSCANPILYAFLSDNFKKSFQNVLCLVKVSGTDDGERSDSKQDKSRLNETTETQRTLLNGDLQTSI
Text: as §1

SSTR3 = SSTR3 (Homo sapiens, UniProt P32745); test: Affinity profile (half-maximal inhibitory concentration), SSTR3; format: binding
Sequence of SSTR3 (P32745 whole entry): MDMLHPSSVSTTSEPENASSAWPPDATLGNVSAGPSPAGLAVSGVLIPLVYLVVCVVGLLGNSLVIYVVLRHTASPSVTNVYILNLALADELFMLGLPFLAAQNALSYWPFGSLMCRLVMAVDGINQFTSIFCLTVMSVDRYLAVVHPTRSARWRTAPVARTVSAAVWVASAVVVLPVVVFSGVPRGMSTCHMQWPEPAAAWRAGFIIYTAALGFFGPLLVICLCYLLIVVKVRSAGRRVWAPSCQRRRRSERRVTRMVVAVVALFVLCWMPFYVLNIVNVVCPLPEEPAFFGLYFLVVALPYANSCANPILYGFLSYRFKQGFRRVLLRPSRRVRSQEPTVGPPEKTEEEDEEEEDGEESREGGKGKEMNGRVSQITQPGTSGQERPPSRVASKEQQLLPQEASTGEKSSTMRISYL
Text: as §1

SSTR4 = SSTR4 (Homo sapiens, UniProt P31391); test: Affinity profile (half-maximal inhibitory concentration), SSTR4; format: binding
Sequence of SSTR4 (P31391 whole entry): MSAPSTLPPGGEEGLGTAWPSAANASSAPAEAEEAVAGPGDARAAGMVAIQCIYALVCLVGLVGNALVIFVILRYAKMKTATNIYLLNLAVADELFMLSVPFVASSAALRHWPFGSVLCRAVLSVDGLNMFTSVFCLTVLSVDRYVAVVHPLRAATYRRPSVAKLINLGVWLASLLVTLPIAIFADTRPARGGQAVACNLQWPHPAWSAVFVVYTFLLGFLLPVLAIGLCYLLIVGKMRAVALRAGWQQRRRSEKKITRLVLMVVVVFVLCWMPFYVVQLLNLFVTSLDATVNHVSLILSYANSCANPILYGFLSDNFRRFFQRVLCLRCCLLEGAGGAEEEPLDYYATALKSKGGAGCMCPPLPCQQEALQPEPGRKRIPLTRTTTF
Text: as §1

SSTR5 = SSTR5 (Homo sapiens, UniProt P35346); test: Affinity profile (half-maximal inhibitory concentration), SSTR5; format: binding
Sequence of SSTR5 (P35346 whole entry): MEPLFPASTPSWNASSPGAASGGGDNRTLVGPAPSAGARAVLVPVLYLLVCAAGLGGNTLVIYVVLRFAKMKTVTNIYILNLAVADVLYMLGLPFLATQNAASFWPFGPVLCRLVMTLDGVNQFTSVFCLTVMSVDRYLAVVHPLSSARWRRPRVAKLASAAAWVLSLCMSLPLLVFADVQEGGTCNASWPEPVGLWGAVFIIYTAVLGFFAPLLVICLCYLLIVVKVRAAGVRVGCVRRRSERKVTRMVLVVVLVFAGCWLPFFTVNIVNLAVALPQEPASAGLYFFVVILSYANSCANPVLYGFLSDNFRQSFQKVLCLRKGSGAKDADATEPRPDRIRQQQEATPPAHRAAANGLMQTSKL
Text: as §1

[3] = Buffer screening for solution stability; format: physicochemical; settings: acetate buffer versus citrate and phosphate buffers; pH range of 4.0 to 4.8
Text: Conjugate 57 is a free flowing powder. The formulation development of Conjugate 57 was accomplished by screening conditions that would provide stability and tonicity to the drug product solution. […] The buffer is formed by a combination of sodium acetate and acetic acid. In summary, acetate buffer, a commonly used parenteral buffer, is used to dissolve Conjugate 57 and ensure stability at a pH range of 4.0 to 4.8.

[4] = Lot 1, 5° C. ± 3° C. study, Initial
[5] = Lot 1, −20° C. ± 5° C. study, Initial
[6] = Lot 1 stored at 5° C. ± 3° C., 3 Month
[7] = Lot 1 stored at −20° C. ± 5° C., 3 Month
[8] = Lot 2, 5° C. ± 3° C./Ambient RH under nitrogen, Initial
[9] = Lot 2, 25° C. ± 2° C., 60% RH ± 5% RH study, Initial
[10] = Lot 2 stored at 5° C. ± 3° C./Ambient RH under nitrogen, 1 Month
[11] = Lot 2 stored at 5° C. ± 3° C./Ambient RH under nitrogen, 1 Month, preliminary identification
[12] = Lot 2 stored at 25° C. ± 2° C., 60% RH ± 5% RH, 3 Month

Compound: COc1cc2cc(c1Cl)N(C)C(=O)C[C@H](OC(=O)[C@H](C)N(C)C(=O)CCSSC[C@H](NC(=O)[C@@H]1CSSC[C@H](NC(=O)[C@H](N)Cc3ccccc3)C(=O)N[C@@H](Cc3ccc(O)cc3)C(=O)N[C@H](Cc3c[nH]c4ccccc34)C(=O)N[C@@H](CCCCN)C(=O)N[C@@H]([C@@H](C)O)C(=O)N1)C(N)=O)[C@]1(C)O[C@H]1[C@H](C)[C@@H]1C[C@@](O)(NC(=O)O1)[C@H](OC)/C=C/C=C(\C)C2 [Conjugate 57]
- MTV (Mean Tumor Volume) (NCI-H69 xenograft; 0.33 mg/kg iv in Solutol HS15, 3 doses per week): 330 mm3
- mice with complete tumor regression (NCI-H69 xenograft; 0.33 mg/kg three times per week in Solutol HS15): no mice having complete tumor regressions
- MTV (Mean Tumor Volume) (NCI-H69 xenograft; 0.5 mg/kg iv in Solutol HS15, 2 doses per week): 105 mm3
- mice with complete tumor regression (NCI-H69 xenograft; 0.5 mg/kg twice weekly in Solutol HS15, 10 animals): 1/10
- mice with complete tumor regression (NCI-H69 xenograft; 1.0 mg/kg in PG, 10 animals): 2/10
- mice with complete tumor regression (NCI-H69 xenograft; 1.0 mg/kg in Solutol HS15, 10 animals): 3/10
- MTV (Mean Tumor Volume) (NCI-H69 xenograft; 1.0 mg/kg iv in PG, 1 dose per week): 178 mm3
- MTV (Mean Tumor Volume) (NCI-H69 xenograft; 1.0 mg/kg iv in Solutol HS15, 1 dose per week): 55 mm3
- adverse effects with health observations (NCI-H69 xenograft; NCI-H69 xenograft): No adverse effects
- weight loss (NCI-H69 xenograft; NCI-H69 xenograft, all Conjugate 57 groups): No weight loss
- degradation on storage ([1]; 5° C.±3° and 25° C./60% Relative Humidity (RH), 3 months): Significant degradation
- Appearance [1, 4]: White powder
- Assay [1, 4]: 88.2%
- Moisture Content by KF [1, 4]: 4.3%
- Purity (RP-HPLC) [1, 4]: 98.0%
- Total Impurities [1, 4]: 1.9%
- Appearance [1, 5]: White powder
- Assay [1, 5]: 88.2%
- Moisture Content by KF [1, 5]: 4.3%
- Purity (RP-HPLC) [1, 5]: 98.0%
- Total Impurities [1, 5]: 1.9%
- Appearance [1, 6]: White powder
- Assay [1, 6]: 88.2%
- Purity (RP-HPLC) [1, 6]: 97.4%
- Total Impurities [1, 6]: 2.5%
- Appearance [1, 7]: White powder
- Assay [1, 7]: 90.9%
- Purity (RP-HPLC) [1, 7]: 98.0%
- Total Impurities [1, 7]: 1.9%
- Appearance [1, 8]: White powder
- Assay [1, 8]: 97.0%
- Moisture Content by KF [1, 8]: 2.1%
- Purity (RP-HPLC) [1, 8]: 98.0%
- Total Impurities [1, 8]: 2.0%
- Starting Materials: BT-976 content ([1]; Lot 2, 5° C. ± 3° C./Ambient RH under nitrogen, Initial, preliminary identification by marker retention time): 0.05%^a
- Appearance [1, 9]: White powder
- Assay [1, 9]: 88.2%
- Moisture Content by KF [1, 9]: 4.3%
- Purity (RP-HPLC) [1, 9]: 98.0%
- Total Impurities [1, 9]: 1.9%
- Appearance [1, 10]: White powder
- Assay [1, 10]: 94.6%
- Moisture Content by KF [1, 10]: 1.9%
- Purity (RP-HPLC) [1, 10]: 96.6%
- Total Impurities [1, 10]: 3.4%
- Starting Materials: BT-976 content [1, 11]: 0.05% a
- Starting Materials: DM1 content [1, 11]: 0.09% a
- Appearance [1, 12]: White powder
- Assay [1, 12]: 78.7%
- Purity (RP-HPLC) [1, 12]: 90.8%
- Total Impurities [1, 12]: 9.2%
- change in purity on storage ([1]; after 3 months at −20° C.±5° C.): No significant change in purity
- time stable ([1]; at −20° C.): at least 3 months
- solubility ([2]; in saline): < 1000 µg/mL
- excipient compatibility ([2]; non-ionic surfactants such as Tween 80 and solutol): compatible
- excipient compatibility ([2]; tocophersolan (TPGS), super refined PEG 300, PEG 400, ethanol, dextrose, or Pluronics F68): not compatible
- IC50 (SSTR1): 380 nM
- IC50 (SSTR2): 0.042 nM
- IC50 (SSTR3): 58 nM
- IC50 (SSTR4): > 1000 nM
- IC50 (SSTR5): 24 nM
- solution stability by buffer [3]: most stability
